Assays:
[1] = biological target: gp70 env protein of amphotropic MLV (4070A envelope), on purified viral particles (amphotropic murine leukemia virus (4070A envelope)); test: ELISA on plate-bound MLV, dilution factor 10, Exp073-DTV Plate 2
[2] = biological target: gp70 env protein of amphotropic MLV (4070A envelope), on purified viral particles (amphotropic murine leukemia virus (4070A envelope)); test: ELISA on plate-bound MLV, dilution factor 50, Exp073-DTV Plate 2
[3] = biological target: gp70 env protein of amphotropic MLV (4070A envelope), on purified viral particles (amphotropic murine leukemia virus (4070A envelope)); test: ELISA on plate-bound MLV, dilution factor 50, Exp122-Ana Plate 2
[4] = biological target: gp70 env protein of amphotropic MLV (4070A envelope), on purified viral particles (amphotropic murine leukemia virus (4070A envelope)); test: ELISA on plate-bound MLV, dilution factor 50, Exp125-Ana Plate 1
[5] = biological target: gp70 env protein of amphotropic MLV (4070A envelope), on purified viral particles (amphotropic murine leukemia virus (4070A envelope)); test: ELISA on plate-bound MLV, dilution factor 250, Exp074-DTV Plate 2
[6] = biological target: gp70 env protein of amphotropic MLV (4070A envelope), on purified viral particles (amphotropic murine leukemia virus (4070A envelope)); test: ELISA on plate-bound MLV, dilution factor 250, Exp121-Ana Plate 1
[7] = biological target: gp70 env protein of amphotropic MLV (4070A envelope), on purified viral particles (amphotropic murine leukemia virus (4070A envelope)); test: ELISA on plate-bound MLV, dilution factor 250, Exp122-Ana Plate 1
[8] = biological target: gp70 env protein of amphotropic MLV (4070A envelope), on purified viral particles (amphotropic murine leukemia virus (4070A envelope)); test: ELISA on plate-bound MLV, dilution factor 1250, Exp072-DTV Plate 1
[9] = biological target: gp70 env protein of amphotropic MLV (4070A envelope), on purified viral particles (amphotropic murine leukemia virus (4070A envelope)); test: ELISA on plate-bound MLV, dilution factor 1250, Exp074-DTV Plate 2
[10] = biological target: gp70 env protein of amphotropic MLV (4070A envelope), on purified viral particles (amphotropic murine leukemia virus (4070A envelope)); test: ELISA on plate-bound MLV, dilution factor 1250, Exp121-Ana Plate 1
[11] = biological target: gp70 env protein of amphotropic MLV (4070A envelope), on purified viral particles (amphotropic murine leukemia virus (4070A envelope)); test: ELISA on plate-bound MLV, dilution factor 6250, Exp122-Ana Plate 2
[12] = biological target: gp70 env protein of amphotropic MLV (4070A envelope), on purified viral particles (amphotropic murine leukemia virus (4070A envelope)); test: ELISA on plate-bound MLV, dilution factor 6250, Exp125-Ana Plate 1
[13] = biological target: gp70 env protein of amphotropic MLV (4070A envelope), on purified viral particles (amphotropic murine leukemia virus (4070A envelope)); test: ELISA on plate-bound MLV, dilution factor 31250, Exp073-DTV Plate 1
[14] = biological target: gp70 env protein of amphotropic MLV (4070A envelope), on purified viral particles (amphotropic murine leukemia virus (4070A envelope)); test: ELISA on plate-bound MLV, dilution factor 31250, Exp074-DTV Plate 2
[15] = biological target: gp70 env protein of amphotropic MLV (4070A envelope), on purified viral particles (amphotropic murine leukemia virus (4070A envelope)); test: ELISA on plate-bound MLV, dilution factor 31250, Exp121-Ana Plate 2
[16] = biological target: gp70 env protein of amphotropic MLV (4070A envelope), on purified viral particles (amphotropic murine leukemia virus (4070A envelope)); test: ELISA on plate-bound MLV, dilution factor 31250, Exp125-Ana Plate 1
[17] = biological target: gp70 env protein of amphotropic MLV (4070A envelope), on purified viral particles (amphotropic murine leukemia virus (4070A envelope)); test: ELISA on plate-bound MLV, dilution factor 31250, Exp125-Ana Plate 2
[18] = biological target: gp70 env protein of amphotropic MLV (4070A envelope), on purified viral particles (amphotropic murine leukemia virus (4070A envelope)); test: ELISA on plate-bound MLV, dilution factor 156250, Exp125-Ana Plate 2
[19] = biological target: gp70 env protein of amphotropic MLV (4070A envelope), on purified viral particles (amphotropic murine leukemia virus (4070A envelope)); test: ELISA on plate-bound MLV, dilution factor 781250, Exp072-DTV Plate 2
[20] = biological target: gp70 env protein of amphotropic MLV (4070A envelope), on purified viral particles (amphotropic murine leukemia virus (4070A envelope)); test: ELISA on plate-bound MLV, dilution factor 781250, Exp073-DTV Plate 1
[21] = biological target: gp70 env protein of amphotropic MLV (4070A envelope), on purified viral particles (amphotropic murine leukemia virus (4070A envelope)); test: ELISA on plate-bound MLV, dilution factor 781250, Exp074-DTV Plate 2
[22] = biological target: gp70 env protein of amphotropic MLV (4070A envelope), on purified viral particles (amphotropic murine leukemia virus (4070A envelope)); test: ELISA on plate-bound MLV, dilution factor 781250, Exp121-Ana Plate 1
[23] = biological target: gp70 env protein of amphotropic MLV (4070A envelope), on purified viral particles (amphotropic murine leukemia virus (4070A envelope)); test: ELISA on plate-bound MLV, dilution factor 781250, Exp125-Ana Plate 1
[24] = biological target: gp70 env protein of amphotropic MLV (4070A envelope), on purified viral particles (amphotropic murine leukemia virus (4070A envelope)); test: ELISA on plate-bound MLV, dilution factor 781250, Exp125-Ana Plate 2
[25] = biological target: gp70 env protein of amphotropic MLV (4070A envelope), on purified viral particles (amphotropic murine leukemia virus (4070A envelope)); test: ELISA on plate-bound MLV, dilution factor 10, inter-assay mean of six experiments
[26] = biological target: gp70 env protein of amphotropic MLV (4070A envelope), on purified viral particles (amphotropic murine leukemia virus (4070A envelope)); test: human anti-MLV ELISA on plate-bound MLV, anti-rat Ig HRP alone or conjugate cocktail

gp70 env protein of amphotropic MLV (4070A envelope), on purified viral particles (amphotropic murine leukemia virus (4070A envelope)), sequence (P21995 whole entry): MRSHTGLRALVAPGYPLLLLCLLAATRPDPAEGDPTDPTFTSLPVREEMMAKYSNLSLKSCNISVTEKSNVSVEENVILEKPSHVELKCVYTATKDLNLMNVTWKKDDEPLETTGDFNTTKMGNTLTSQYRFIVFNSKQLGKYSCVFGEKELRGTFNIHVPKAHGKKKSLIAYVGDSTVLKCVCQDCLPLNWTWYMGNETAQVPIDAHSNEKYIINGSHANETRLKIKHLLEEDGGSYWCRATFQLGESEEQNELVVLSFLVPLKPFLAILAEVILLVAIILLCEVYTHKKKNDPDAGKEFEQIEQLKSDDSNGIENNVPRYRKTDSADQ

## 83A25 monoclonal antibody (rat IgG2a, anti-gp70)
[1]
  Mean OD: 2.48 OD
[2]
  Mean OD: 2.31 OD
[3]
  Mean OD: 1.89 OD
[4]
  Mean OD: 1.99 OD
[5]
  Mean OD: 1.89 OD
[6]
  Mean OD: 2.37 OD
[7]
  Mean OD: 1.86 OD
[8]
  Mean OD: 1.3 OD
[9]
  Mean OD: 1.39 OD
[10]
  Mean OD: 1.93 OD
[11]
  Mean OD: 0.643 OD
[12]
  Mean OD: 0.653 OD
[13]
  Mean OD: 0.282 OD
[14]
  Mean OD: 0.25 OD
[15]
  Mean OD: 0.276 OD
[16]
  Mean OD: 0.235 OD
[17]
  Mean OD: 0.239 OD
[18]
  Mean OD: 0.124 OD
[19]
  Mean OD: 0.104 OD
[20]
  Mean OD: 0.107 OD
[21]
  Mean OD: 0.107 OD
[22]
  Mean OD: 0.137 OD
[23]
  Mean OD: 0.105 OD
[24]
  Mean OD: 0.105 OD
[25]
  Mean OD (inter-assay mean): 2.3 OD
[26]
  titer (reciprocal dilution (1:x)): 312000
